This is an account of results in publication PMC11088704, “Structural basis for the regulation of plant transcription factor WRKY33 by the VQ protein SIB1” (Communications Biology, 2024).

Data set [1] has as its target WRKY33_C (Arabidopsis thaliana, UniProt Q8S8P5 345-422). As to the kind of experiment: EMSA; no SIB1; estimated from band intensity (an earlier response in the peer review file prints 150 uM, called sub-micromolar); EMSA: NMR buffer (composition not given in material) with 100 mM NaCl, 1.0 ng dsDNA in 20 ul, room temperature 20 min, SIB1:WRKY33_C 2:1; gel in 0.5x TBE, GelRed stain. To be noted: protein: recombinant; tags: C-terminal 6xHis; blunt.

Data set [2] deals with T1, WRKY33_C I350A mutant (Arabidopsis thaliana, UniProt Q8S8P5 331-422, I350A).
T1 construct: WRKY33, Arabidopsis, C-terminal DBD; source: E. coli BL21(DE3), purified (Ni-NTA, gel filtration Superdex-75)
The experiment in a line: NMR titration; 2D 1H-15N HSQC of 15N-labeled WRKY33_C (or its mutants), 0.1 mM, with SIB1 or SIB1 peptides added at 2:1 (5:1 also for SIB1^40–60 and SIB1^55–69); 30 mM MES pH 6.0, 50 mM NaCl, 20 uM ZnSO4, 10% D2O, 25 °C. The conditions noted are these: both partners purified.

The target of data set [3] is T2, WRKY33_C V351A mutant (Arabidopsis thaliana, UniProt Q8S8P5 331-422, V351A).
T2 construct: WRKY33, Arabidopsis, C-terminal DBD; source: E. coli BL21(DE3), purified (Ni-NTA, gel filtration Superdex-75)
Described as above. The conditions noted are these: both partners purified.

Data set [4] has as its target T3, WRKY33 C-terminal DNA-binding domain (WRKY33_C) (Arabidopsis thaliana, UniProt Q8S8P5 331-422).
T3 construct: it holds I350 and the truncation V352-A422 is derived from it; Zinc-finger domain; 20 uM ZnSO4 in the buffers; Construct limits may be read from PDB 8K31; also called WRKY33 cDBD; WK33; source: E. coli BL21(DE3), purified (Ni-NTA, gel filtration Superdex-75)
The experiment in a line: cross-linking; EGS crosslinker, 30-fold molar excess; WRKY33_C and SIB1 each 90 uM; 20 mM HEPES pH 7.0, 50 mM NaCl; room temperature; Tricine-SDS-PAGE. The conditions noted are these: both partners purified.

Data set [5] has as its target T4, WRKY33_C R366C mutant (Arabidopsis thaliana, UniProt Q8S8P5 331-422, R366C).
T4 construct: WRKY33, Arabidopsis, C-terminal DBD; also called R336 (as printed once); source: E. coli, expressed and purified similarly to the wild-type protein
The experiment in a line: NMR titration; 2D 1H-15N HSQC of 15N-labeled SIB1 free and in complex with unlabeled WRKY33_C or its mutants; 30 mM MES pH 6.0, 50 mM NaCl, 20 uM ZnSO4, 25 °C. The conditions noted are these: both partners purified.

The target in data set [6] is T5, WRKY33_C D357C mutant (Arabidopsis thaliana, UniProt Q8S8P5 331-422, D357C).
T5 construct: WRKY33, Arabidopsis, C-terminal DBD; The mutant without the maleimide-EDTA tag; source: E. coli, expressed and purified similarly to the wild-type protein
The description is as above. The conditions noted are these: both partners purified.

Data set [7] has as its target T6, spin-labeled WRKY33_C D357C (Arabidopsis thaliana, UniProt Q8S8P5 331-422, D357C, Cys357 labelled with N-[2-maleimidoethyl]ethylenediamine-N,N,N',N'-tetraacetic acid monoamide, chelating Mn^2+ (paramagnetic) or Ca^2+).
T6 construct: WRKY33, Arabidopsis, C-terminal DBD; also called D357C spin-labeled; Ca^2+-chelated WRKY33_C mutant; source: E. coli, purified as the wild type; labelled, then purified on a cation exchange column
The description is as above. To be noted: both partners purified.

Data set [8] deals with T7, WRKY33_C K376C mutant (Arabidopsis thaliana, UniProt Q8S8P5 331-422, K376C).
T7 construct: WRKY33, Arabidopsis, C-terminal DBD; The mutant without the maleimide-EDTA tag; source: E. coli, expressed and purified similarly to the wild-type protein
The description is as above. The conditions noted are these: both partners purified.

Data set [9] concerns the target T8, spin-labeled WRKY33_C R366C (Arabidopsis thaliana, UniProt Q8S8P5 331-422, R366C, Cys366 labelled with N-[2-maleimidoethyl]ethylenediamine-N,N,N',N'-tetraacetic acid monoamide, chelating Mn^2+ (paramagnetic) or Ca^2+).
T8 construct: WRKY33, Arabidopsis, C-terminal DBD; also called R366C spin-labeled; Ca^2+-chelated WRKY33_C mutant; source: E. coli, purified as the wild type; labelled, then purified on a cation exchange column
The data set is described as above. The conditions noted are these: both partners purified.

The target of data set [10] is T9, spin-labeled WRKY33_C K376C (Arabidopsis thaliana, UniProt Q8S8P5 331-422, K376C, Cys376 labelled with N-[2-maleimidoethyl]ethylenediamine-N,N,N',N'-tetraacetic acid monoamide, chelating Mn^2+ (paramagnetic) or Ca^2+).
T9 construct: WRKY33, Arabidopsis, C-terminal DBD; also called K376C spin-labeled; Ca^2+-chelated WRKY33_C mutant; source: E. coli, purified as the wild type; labelled, then purified on a cation exchange column
The data set is described as above. To be noted: both partners purified.

For data set [11], the target named is T3, WRKY33 C-terminal DNA-binding domain …. As to the kind of experiment: SEC; Superdex-75; Trx-SIB1 incubated with WRKY33_C before loading; protein standards for calibration. The conditions noted are these: both partners purified.
In data set [12] the target is T10, WRKY33_C-I360D mutant protein (Arabidopsis thaliana, UniProt Q8S8P5 331-422, I360D).
T10 construct: WRKY33, Arabidopsis, C-terminal DBD; source: E. coli BL21(DE3), purified (Ni-NTA, gel filtration Superdex-75)
The experiment in a line: NMR titration; 2D 1H-15N HSQC of 15N-labeled WRKY33_C (or its mutants), 0.1 mM, with SIB1 or SIB1 peptides added at 2:1 (5:1 also for SIB1^40–60 and SIB1^55–69); 30 mM MES pH 6.0, 50 mM NaCl, 20 uM ZnSO4, 10% D2O, 25 °C. To be noted: both partners purified.

The target of data set [13] is T11, WRKY33_C-I358D mutant protein (Arabidopsis thaliana, UniProt Q8S8P5 331-422, I358D).
T11 construct: WRKY33, Arabidopsis, C-terminal DBD; source: E. coli BL21(DE3), purified (Ni-NTA, gel filtration Superdex-75)
The data set is described as above. The conditions noted are these: both partners purified.

T3 sequence (Q8S8P5 331-422): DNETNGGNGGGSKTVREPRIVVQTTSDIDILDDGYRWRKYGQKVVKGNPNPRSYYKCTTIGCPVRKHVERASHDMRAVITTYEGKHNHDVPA
T11 sequence (Q8S8P5 331-422 I358D): as the sequence (Q8S8P5 331-422) above, with I28D counted along it
T4 sequence (Q8S8P5 331-422 R366C): as the sequence (Q8S8P5 331-422) above, with R36C counted along it
T8 sequence (Q8S8P5 331-422 R366C): as the sequence (Q8S8P5 331-422) above, with R36C counted along it
T1 sequence (Q8S8P5 331-422 I350A): as the sequence (Q8S8P5 331-422) above, with I20A counted along it
WRKY33_C, sequence (Q8S8P5 345-422): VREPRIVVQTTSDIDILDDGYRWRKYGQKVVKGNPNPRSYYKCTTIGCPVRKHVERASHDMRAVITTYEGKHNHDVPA
T7 sequence (Q8S8P5 331-422 K376C): as the sequence (Q8S8P5 331-422) above, with K46C counted along it
T9 sequence (Q8S8P5 331-422 K376C): as the sequence (Q8S8P5 331-422) above, with K46C counted along it
T10 sequence (Q8S8P5 331-422 I360D): as the sequence (Q8S8P5 331-422) above, with I30D counted along it
T2 sequence (Q8S8P5 331-422 V351A): as the sequence (Q8S8P5 331-422) above, with V21A counted along it
T5 sequence (Q8S8P5 331-422 D357C): as the sequence (Q8S8P5 331-422) above, with D27C counted along it
T6 sequence (Q8S8P5 331-422 D357C): as the sequence (Q8S8P5 331-422) above, with D27C counted along it

B1: W-box DNA (dsDNA)
DNA 1: AAAGTTGACCAA
DNA 2: TTGGTCAACTTT
For B1, in [1], the Kd was about 150 nM.

B2: SIB1^mini (SIB1^46–69 peptide, minimal SIB1 construct) (peptide, UniProt Q9LDH1 46-69, looked up)
peptide: SNPMRVQTCASKFRELVQELTGQD
notes: SIB1 (VQ23), Arabidopsis, residues 46-69: the VQ motif and its preceding segment; source: synthetic peptide
Take B2: the binding result in data set [2] and in [3] was “binds” in each case.

B3: SIB1^11-100 (T11-L100 segment of Arabidopsis sigma factor-binding protein SIB1) (domain or fragment, Arabidopsis thaliana, UniProt Q9LDH1 11-100, looked up)
chain: TTSLDKKKPSPVSRKSPKQKKKTTSTNKPIKVRYISNPMRVQTCASKFRELVQELTGQDAVDLQPEPIYSPSSDDHNLSPPAENLAPRVL
notes: SIB1 (VQ23), Arabidopsis, residues T11-L100; the N-terminal chloroplast targeting signal and the C-terminal 51 residues are deleted; Used unlabelled, 15N- or 13C/15N-labelled; also called VQ23; source: E. coli BL21(DE3), purified (Ni-NTA, gel filtration Superdex-75)
B3: the “stoichiometry N” value in data set [4] stood at 1. Also, the binding result in [5], in data set [6], in data set [7], in [8], in [9] and in data set [10] was “binds” each time.

B4: Trx-SIB1 fusion protein (thioredoxin-fused SIB1) (domain or fragment, Arabidopsis thaliana, UniProt Q9LDH1 11-100, looked up)
chain: TTSLDKKKPSPVSRKSPKQKKKTTSTNKPIKVRYISNPMRVQTCASKFRELVQELTGQDAVDLQPEPIYSPSSDDHNLSPPAENLAPRVL
notes: SIB1 (VQ23), Arabidopsis; limits are not restated for the Trx fusion; The methods give 24 kDa for 'Trx'
In the case of B4, the “stoichiometry N” value in data set [11] is 1.

B5: SIB1^mini-V51R mutant peptide (peptide, UniProt Q9LDH1 46-69, looked up)
peptide: SNPMRRQTCASKFRELVQELTGQD
notes: SIB1 (VQ23), Arabidopsis, residues 46-69 with V51R
As to B5, the binding result in [12] and in [13] was “binds” in each case.
